This is an account of results in the FLAb antibody collection (doi:10.7554/elife.23156).

In general, Kd refers to the equilibrium constant for the complex coming apart.

Sequences and labels used below:
B1: scFv; the commonest letter at each place (parent)
chain 1: EVKLDETGGGLVQPGRPMKLSCVASGFTFSDYWMNWVRQSPEKGLEWVAQIRNKPYNYETYYSDSVKGRFTISRDDSKSSVYLQMNNLRVEDMGIYYCTGSYYGMDYWGQGTSVTVS
chain 2: DVVMTQTPLSLPVSLGDQASISCRSSQSLVHSNGNTYLRWYLQKPGQSPKVLIYKVSNRFSGVPDRFSGSGSGTDFTLKISRVEAEDLGVYFCSQSTHVPWTFGGGTKLEIK

The variants in series [1] derive from B1. Nature of the series: Kd (Tite-Seq). The note with it: with fluorescein; format: scFv 4-4-20, heavy + light.
In series [2] the parent is B1. The series is described as follows: yeast surface expression (ratio to wild type); higher = more expressed. The note with it: format: scFv 4-4-20, heavy + light.

Turning to chain 1 F29E, in series [1], the Kd was at least 10 µM. For the same variant, the yeast surface expression in series [2] stood at 0.778.

As to chain 1 F29S, the Kd in series [1] stood at 0.0265 µM. Also, the yeast surface expression in series [2] was 0.933.

In the case of chain 1 F29Q, in series [1], the Kd was 0.0119 µM. Also, the yeast surface expression in series [2] was found to be 0.989.

For the variant chain 1 F29R S30L, the Kd in series [1] is at least 10 µM. For the same variant, the yeast surface expression in series [2] was found to be 0.654.

As to chain 1 F29C M34K W36I, the Kd in series [1] was at least 10 µM. In addition, in series [2], the yeast surface expression was 0.425.

As for chain 1 F29Q W33I, the Kd in series [1] is at least 10 µM. Further, the yeast surface expression in series [2] is 0.707.

In the case of chain 1 F29C S30C, in series [1], the Kd was at least 10 µM. Besides, the yeast surface expression in series [2] came out at 0.693.

On to chain 1 F29C N35I, for which the Kd in series [1] is at least 10 µM. The yeast surface expression in series [2] was found to be 1.12.

For chain 1 F29C N35K, in series [1], the Kd is at least 10 µM. Also, in series [2], the yeast surface expression stood at 1.18.

With chain 1 F29M D31N Y32A, in series [1], the Kd was 0.00606 µM. For the same variant, the yeast surface expression in series [2] is 1.2.

For chain 1 F29C D31M, the Kd in series [1] was at least 10 µM. Further, the yeast surface expression in series [2] is 0.669.

Regarding chain 1 F29C D31Y, in series [1], the Kd is at least 10 µM. For the same variant, the yeast surface expression in series [2] came out at 0.522.

Consider chain 1 F29L W33A, for which, in series [1], the Kd is at least 10 µM. In series [2], the yeast surface expression stood at 0.763.

For chain 1 F29L W33Y, in series [1], the Kd was at least 10 µM. Further, in series [2], the yeast surface expression came out at 0.732.

For the variant chain 1 D106W Y107G G109L, the Kd in series [1] is at least 10 µM. The yeast surface expression in series [2] turned out to be 0.109.

As to chain 1 F29M W36V, in series [1], the Kd is at least 10 µM. For the same variant, the yeast surface expression in series [2] turned out to be 0.782.

Consider chain 1 F29M Y32M, for which the Kd in series [1] worked out at 0.0171 µM. Also, the yeast surface expression in series [2] is 1.21.

In the case of chain 1 F29P D31A M34A, in series [1], the Kd was at least 10 µM. In series [2], the yeast surface expression worked out at 0.567.

Turning to chain 1 F29R Y32Q, the Kd in series [1] is at least 10 µM. In addition, the yeast surface expression in series [2] was 0.633.

With chain 1 F29N S30Q N35K, in series [1], the Kd is at least 10 µM. Besides, in series [2], the yeast surface expression was 2.76.

In the case of chain 1 F29I M34T, the Kd in series [1] was at least 10 µM. The yeast surface expression in series [2] was determined as 0.54.

Take chain 1 F29N W33P: the Kd in series [1] was at least 10 µM. The yeast surface expression in series [2] turned out to be 0.333.

For chain 1 F29K W33R, the Kd in series [1] worked out at 0.0692 µM. For the same variant, the yeast surface expression in series [2] worked out at 0.639.

With chain 1 F29P S30Q, the Kd in series [1] was determined as 0.0132 µM. Further, the yeast surface expression in series [2] turned out to be 1.05.

Take chain 1 F29P S30Y: in series [1], the Kd was 0.0221 µM. Moreover, the yeast surface expression in series [2] came out at 0.751.

Turning to chain 1 D106V W108N, in series [1], the Kd was at least 10 µM. Also, the yeast surface expression in series [2] turned out to be 0.371.

In the case of chain 1 D106T Y107V, in series [1], the Kd came to 5.37 µM. Further, the yeast surface expression in series [2] is 0.829.

As for chain 1 F29N V37D, the Kd in series [1] was at least 10 µM. In addition, the yeast surface expression in series [2] worked out at 0.229.

Regarding chain 1 F29N V37T, the Kd in series [1] is at least 10 µM. Moreover, in series [2], the yeast surface expression worked out at 0.668.

Turning to chain 1 F29N V37G, in series [1], the Kd is at least 10 µM. In series [2], the yeast surface expression turned out to be 0.135.

For the variant chain 1 F29G W36M, the Kd in series [1] was at least 10 µM. For the same variant, the yeast surface expression in series [2] was found to be 0.478.

Regarding chain 1 F29E Y32V, the Kd in series [1] is at least 10 µM. Further, the yeast surface expression in series [2] came to 0.811.

For chain 1 F29M N35W, in series [1], the Kd is at least 10 µM. Moreover, in series [2], the yeast surface expression stood at 0.403.

On to chain 1 D106T W108Q, for which the Kd in series [1] was at least 10 µM. Also, the yeast surface expression in series [2] turned out to be 0.5.

For the variant chain 1 F29S M34S, in series [1], the Kd was at least 10 µM. Moreover, the yeast surface expression in series [2] stood at 0.543.

On to chain 1 F29M D31Y W33Q, for which the Kd in series [1] is at least 10 µM. Further, the yeast surface expression in series [2] came out at 0.811.

Regarding chain 1 F29D V37D, the Kd in series [1] was at least 10 µM. Moreover, the yeast surface expression in series [2] amounted to 0.557.

Regarding chain 1 F29D V37A, the Kd in series [1] is at least 10 µM. The yeast surface expression in series [2] was determined as 0.907.

Take chain 1 F29P W33G: the Kd in series [1] was at least 10 µM. The yeast surface expression in series [2] is 0.951.

Regarding chain 1 F29P W33E, the Kd in series [1] is at least 10 µM. In addition, the yeast surface expression in series [2] came to 0.722.

Consider chain 1 F29C V37E, for which the Kd in series [1] came to 6.96 µM. Moreover, the yeast surface expression in series [2] stood at 0.973.

As for chain 1 F29C V37M, the Kd in series [1] came out at 0.02 µM. In addition, in series [2], the yeast surface expression stood at 0.763.

For the variant chain 1 F29A S30D M34K, in series [1], the Kd is at least 10 µM. Further, the yeast surface expression in series [2] was 0.41.

Consider chain 1 F29G N35I, for which the Kd in series [1] was at least 10 µM. Further, in series [2], the yeast surface expression was 0.645.

Consider chain 1 F29H W36Q, for which the Kd in series [1] is at least 10 µM. Moreover, the yeast surface expression in series [2] turned out to be 0.693.

For the variant chain 1 F29H W36C, in series [1], the Kd is at least 10 µM. Also, the yeast surface expression in series [2] is 0.281.

With chain 1 F29H W36D, the Kd in series [1] was at least 10 µM. In addition, in series [2], the yeast surface expression is 0.486.

With chain 1 F29A M34K V37T, the Kd in series [1] is at least 10 µM. Also, the yeast surface expression in series [2] turned out to be 0.628.

chain 1 F29I D31E Y32T: in series [1], the Kd was at least 10 µM. The yeast surface expression in series [2] was 0.84.

On to chain 1 F29Q S30G, for which, in series [1], the Kd was 0.0391 µM. The yeast surface expression in series [2] is 0.863.

With chain 1 F29Q S30Q, in series [1], the Kd was 0.0146 µM. For the same variant, the yeast surface expression in series [2] is 0.966.

In the case of chain 1 F29D Y32K W33Y, the Kd in series [1] was determined as 6.61 µM. In addition, the yeast surface expression in series [2] came to 1.18.

Consider chain 1 F29G S30T N35R, for which the Kd in series [1] is at least 10 µM. Further, in series [2], the yeast surface expression was determined as 0.82.

On to chain 1 F29S D31Y, for which the Kd in series [1] was determined as 0.00343 µM. Also, in series [2], the yeast surface expression is 0.752.

On to chain 1 F29S D31W, for which the Kd in series [1] is at least 10 µM. The yeast surface expression in series [2] amounted to 0.756.

With chain 1 F29Q Y32V, in series [1], the Kd is at least 10 µM. Moreover, the yeast surface expression in series [2] was 0.848.

For chain 1 F29Q Y32L, the Kd in series [1] was at least 10 µM. Moreover, in series [2], the yeast surface expression stood at 0.881.

In the case of chain 1 F29Q Y32C, in series [1], the Kd came out at 9.5 µM. In addition, in series [2], the yeast surface expression was determined as 1.
